The substances below were run against ectodomain of SARS-CoV-2 S protein (a.a. 1-1208 (SARS-CoV-2) (UniProt P0DTC2)) (assay: SPR).

Substance | Kd [nM]
CR3022 scFv VLVH | 27.8
CR3022 scFv VHVL | 20.1
CR3022 IgG (antibody) | 0.21
CR3022 Fab | 45.4
